{"source": "paper PMC13708078", "about": "“Development of a GRPR-Targeted ^99mTc/^188Re Theranostic Pair Based on NOTA-P2-RM26” (Pharmaceutics, 2026)", "assay": "in vivo", "parameters": "species or system mice", "settings": "female, Swiss Albino SCID, mouse, iv, total radioactivity", "protocol": "PC-3 xenografts were established in female Swiss Albino SCID mice, aged 7–8 weeks. After acclimatization, animals were injected subcutaneously into the right shoulder/upper-flank region with freshly harvested PC-3 cells suspended in PBS. Each animal received 5 × 10^6 cells. Tumors were allowed to grow for approximately three weeks until palpable solid tumors were formed. At the time of the experiments, tumor volumes ranged from 200 to 400 mm^3. Animals were then randomly assigned to experimental groups.\nBiodistribution studies were performed at 30 min and 1 h post injection (p.i.). […] The injected volume was 100 μL, and the injected activity was approximately 100 kBq per animal. Animals weighed 21 ± 2 g on the day of the experiment. For in vivo blocking studies, a separate group of animals received non-radioactive NOTA-P2-RM26 (50 μg) 5 min prior to the radiotracer injection. Blocking animals were euthanized at 1 h p.i. At the selected time points, animals were euthanized. Blood, tumors, organs, and tissues of interest were collected, weighed, and measured for radioactivity using the gamma counter. The stomach and intestines were measured without content. […] Data were decay-corrected and expressed as a percentage of injected activity per gram of tissue (%IA/g). Urine/bladder and gastrointestinal/fecal content were expressed as a percentage of injected activity (%IA)."}
{"smiles": "CC(C)C[C@H](NC(=O)C[C@H](O)[C@H](CC(C)C)NC(=O)[C@H](Cc1c[nH]cn1)NC(=O)CNC(=O)[C@@H](NC(=O)[C@H](C)NC(=O)[C@H](Cc1c[nH]c2ccccc12)NC(=O)[C@H](CCC(N)=O)NC(=O)[C@@H](Cc1ccccc1)NC(=O)COCCOCCNC(=O)CN1CCN(CC(=O)O)CCN(CC(=O)O)CC1)C(C)C)C(N)=O", "note": "[^99mTc2, fac-[^99mTc][Tc(CO)3(NOTA-P2-RM26)], metal not drawn]", "values": [{"measurement": "tissue uptake at 1 h", "setting": "bone uptake", "value": "0.18 ± 0.07", "unit": "%ID/g"}, {"measurement": "tissue uptake at 1 h", "setting": "pancreatic uptake", "value": "3 ± 0.35", "unit": "%ID/g"}]}
